Experimental data from the supplement of paper PMC7877785.
± gives the uncertainty stated by the source.

Assay: self-splicing fitness, log relative to wild type (ln ratio); higher = more splicing; Tetrahymena group I intron in knt gene, E. coli kanamycin selection, DiMSum; sequences stand for … in CUCUCU…GGAGGGAAAAGUUAUCAGGCAUGCACCUGGUAGCUAGUCUUUAAACCAAUAGAUUGCAUCGGUUUAAAAGGCAAGACCGUCAAAUUGCGGGAAAGGGGUCAACAGCCGUUCAGUACCAAGUCUCAGGGGAAACUUUGAGAUGGCCUUGCAAAGGGUAUGGUAAUAAGCUGACGGACAUGGUCCUAACCACGCAGCCAAGUCCUAAGUCAACAGAUCUUCUGUUGAUAUGGAUGCAGUUCACAGACUAAAUGUCGGUCGGGGAAGAUGUAUUCUUCUCAUAAGAUAUAGUCGGACCUCUCCUUAAUGGGAGCUAGCGGAUGAAGUGAUGCAACACUGGAGCCGCUGGGAACUAAUUUGUAUGCGAAAGUAUAUUGAUUAGUUUUGGAGUACUCGUGGUCG
Method in brief: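 DiMSum derived fitness as the error-weighted combination of fold changes across replicates, kanamycin versus no kanamycin, normalised to wild type. E. coli BL21(DE3) held the library, which randomised all eight P1ex-region intron nucleotides within the knt kanamycin-resistance gene on pET-22b(+). Six replicate transformations grew overnight at 37°C or 30°C on LB agar with or without 25 μg/mL kanamycin, also containing 100 μg/mL carbenicillin, 50 μM IPTG and 0.2% rhamnose, and pooled colonies were amplicon-sequenced on an Illumina HiSeq 2500.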

GCGCAGCAAUAUUACGGCCG
self-splicing fitness (ln) (30 °C): -2.99 ± 0.38
self-splicing fitness (ln) (37 °C): -2.26 ± 0.26

GCGCAGCAAUAUUACGGCGC
self-splicing fitness (ln) (30 °C): -2.58 ± 0.21
self-splicing fitness (ln) (37 °C): -1.98 ± 0.24

GCGCAGCAAUAUUACGGGUC
self-splicing fitness (ln) (30 °C): -2.71 ± 0.11
self-splicing fitness (ln) (37 °C): -0.449 ± 0.092

GCGCAGCAAUAUUACGGUCA
self-splicing fitness (ln) (30 °C): -1.41 ± 0.12
self-splicing fitness (ln) (37 °C): -1.49 ± 0.099

GCGCAGCAAUAUUACGUCUC
self-splicing fitness (ln) (30 °C): -0.0041 ± 0.098
self-splicing fitness (ln) (37 °C): 0.525 ± 0.12

GCGCAGCAAUAUUACGUUCC
self-splicing fitness (ln) (30 °C): -0.792 ± 0.096
self-splicing fitness (ln) (37 °C): -0.406 ± 0.13

GCGCAGCAAUAUUACGUUGC
self-splicing fitness (ln) (30 °C): -2.95 ± 0.14
self-splicing fitness (ln) (37 °C): -2.51 ± 0.27

GCGCAGCAAUAUUACGUUUG
self-splicing fitness (ln) (30 °C): -1.86 ± 0.14
self-splicing fitness (ln) (37 °C): -1.76 ± 0.14

GCGGAGCAAUAUUACGAUAA
self-splicing fitness (ln) (37 °C): -2.08 ± 0.35

GCGGAGCAAUAUUACGGACA
self-splicing fitness (ln) (30 °C): -1.62 ± 0.21
self-splicing fitness (ln) (37 °C): -2.26 ± 0.31

GCGGAGCAAUAUUACGGAUU
self-splicing fitness (ln) (30 °C): -3.69 ± 0.27
self-splicing fitness (ln) (37 °C): -1.28 ± 0.2

GCGGAGCAAUAUUACGGCUC
self-splicing fitness (ln) (30 °C): -2.05 ± 0.36

GCGGAGCAAUAUUACGGGCC
self-splicing fitness (ln) (30 °C): -2.57 ± 0.42

GCGGAGCAAUAUUACGGUCU
self-splicing fitness (ln) (30 °C): -3.04 ± 0.44
self-splicing fitness (ln) (37 °C): -2.35 ± 0.36

GCGGAGCAAUAUUACGUACC
self-splicing fitness (ln) (30 °C): -3.69 ± 0.36
self-splicing fitness (ln) (37 °C): -0.124 ± 0.43

GCGGAGCAAUAUUACGUGGA
self-splicing fitness (ln) (30 °C): -3.37 ± 0.38
self-splicing fitness (ln) (37 °C): -2.38 ± 0.42

GCGGAGCAAUAUUACGUGGG
self-splicing fitness (ln) (30 °C): -2.01 ± 0.3
self-splicing fitness (ln) (37 °C): -2.25 ± 0.34

GCGGAGCAAUAUUACGUUAA
self-splicing fitness (ln) (30 °C): -2.66 ± 0.25
self-splicing fitness (ln) (37 °C): -2.32 ± 0.3

GCGGAGCAAUAUUACGUUGU
self-splicing fitness (ln) (30 °C): -2.96 ± 0.13
self-splicing fitness (ln) (37 °C): -1.79 ± 0.14

GCGUAGCAAUAUUACGAAAA
self-splicing fitness (ln) (30 °C): -2.22 ± 0.41
self-splicing fitness (ln) (37 °C): -1.48 ± 0.25

GCGUAGCAAUAUUACGAACU
self-splicing fitness (ln) (30 °C): -0.546 ± 0.13
self-splicing fitness (ln) (37 °C): -0.322 ± 0.11

GCGUAGCAAUAUUACGACUA
self-splicing fitness (ln) (30 °C): 0.106 ± 0.14
self-splicing fitness (ln) (37 °C): 0.571 ± 0.14

GCGUAGCAAUAUUACGCCAU
self-splicing fitness (ln) (30 °C): -2.97 ± 0.31
self-splicing fitness (ln) (37 °C): -2.93 ± 0.47

GCGUAGCAAUAUUACGCCGC
self-splicing fitness (ln) (30 °C): -2.36 ± 0.42

GCGUAGCAAUAUUACGCGGU
self-splicing fitness (ln) (30 °C): -2.42 ± 0.29
self-splicing fitness (ln) (37 °C): -2.48 ± 0.3

GCGUAGCAAUAUUACGCGUC
self-splicing fitness (ln) (30 °C): -2.75 ± 0.28
self-splicing fitness (ln) (37 °C): -2.06 ± 0.46

GCGUAGCAAUAUUACGCUAG
self-splicing fitness (ln) (30 °C): -2.9 ± 0.2
self-splicing fitness (ln) (37 °C): -2.54 ± 0.29

GCGUAGCAAUAUUACGCUCG
self-splicing fitness (ln) (30 °C): -3.75 ± 0.32
self-splicing fitness (ln) (37 °C): -1.08 ± 0.2

GCGUAGCAAUAUUACGCUUC
self-splicing fitness (ln) (37 °C): -0.836 ± 0.35

GCGUAGCAAUAUUACGGAUA
self-splicing fitness (ln) (30 °C): -1.67 ± 0.13
self-splicing fitness (ln) (37 °C): -0.826 ± 0.13

GCGUAGCAAUAUUACGGCAU
self-splicing fitness (ln) (30 °C): -0.91 ± 0.061
self-splicing fitness (ln) (37 °C): -0.0121 ± 0.072

GCGUAGCAAUAUUACGGGAU
self-splicing fitness (ln) (30 °C): -1.51 ± 0.14
self-splicing fitness (ln) (37 °C): -1.38 ± 0.21

GCGUAGCAAUAUUACGGUAC
self-splicing fitness (ln) (30 °C): -2.72 ± 0.25
self-splicing fitness (ln) (37 °C): -1.44 ± 0.19

GCGUAGCAAUAUUACGGUCC
self-splicing fitness (ln) (30 °C): -1.23 ± 0.38
self-splicing fitness (ln) (37 °C): -1.02 ± 0.3

GCGUAGCAAUAUUACGUCAG
self-splicing fitness (ln) (30 °C): -1.8 ± 0.4
self-splicing fitness (ln) (37 °C): -1.23 ± 0.4

GCGUAGCAAUAUUACGUGGU
self-splicing fitness (ln) (30 °C): -3.53 ± 0.19
self-splicing fitness (ln) (37 °C): -3.64 ± 0.22

GCGUAGCAAUAUUACGUUCA
self-splicing fitness (ln) (30 °C): -0.985 ± 0.11
self-splicing fitness (ln) (37 °C): -0.728 ± 0.12

GCUAAGCAAUAUUACGAACG
self-splicing fitness (ln) (30 °C): -0.806 ± 0.068
self-splicing fitness (ln) (37 °C): 0.22 ± 0.097

GCUAAGCAAUAUUACGAACU
self-splicing fitness (ln) (30 °C): -0.229 ± 0.079
self-splicing fitness (ln) (37 °C): 0.203 ± 0.095

GCUAAGCAAUAUUACGAUCC
self-splicing fitness (ln) (30 °C): -0.136 ± 0.12
self-splicing fitness (ln) (37 °C): -0.278 ± 0.14

GCUAAGCAAUAUUACGAUCG
self-splicing fitness (ln) (30 °C): -1.1 ± 0.1
self-splicing fitness (ln) (37 °C): -0.997 ± 0.12

GCUAAGCAAUAUUACGCAAU
self-splicing fitness (ln) (30 °C): -1.55 ± 0.17
self-splicing fitness (ln) (37 °C): -1.75 ± 0.15

GCUAAGCAAUAUUACGCGCA
self-splicing fitness (ln) (30 °C): -0.989 ± 0.1
self-splicing fitness (ln) (37 °C): -0.114 ± 0.12

GCUAAGCAAUAUUACGCUAC
self-splicing fitness (ln) (30 °C): -2.37 ± 0.15
self-splicing fitness (ln) (37 °C): -2.44 ± 0.26

GCUAAGCAAUAUUACGCUCC
self-splicing fitness (ln) (30 °C): -1.01 ± 0.13
self-splicing fitness (ln) (37 °C): -1.07 ± 0.18

GCUAAGCAAUAUUACGCUUC
self-splicing fitness (ln) (30 °C): -2.89 ± 0.18
self-splicing fitness (ln) (37 °C): -2.56 ± 0.23

GCUAAGCAAUAUUACGGAGG
self-splicing fitness (ln) (30 °C): -1.11 ± 0.14
self-splicing fitness (ln) (37 °C): -1.65 ± 0.29

GCUAAGCAAUAUUACGGAGU
self-splicing fitness (ln) (30 °C): -4.27 ± 0.27
self-splicing fitness (ln) (37 °C): -3.14 ± 0.26

GCUAAGCAAUAUUACGGCGC
self-splicing fitness (ln) (30 °C): -1.55 ± 0.11
self-splicing fitness (ln) (37 °C): -0.159 ± 0.16
